These sequences were tested against MERTK (UniProt Q12866) (assay: phosphorylation enrichment, bacterial display (enrichment ratio); higher = better substrate or ligand; peptides without Tyr show the background).
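Wherever SH2 binding enrichment of the phosphorylated peptide, bacterial display is given: peptide library displayed on the E. coli surface as eCPX fusions, selected cells deep-sequenced, score is each peptide's frequency after selection divided by its frequency in the input.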
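Wherever phosphorylation enrichment, bacterial display is given: 11-residue human phosphosite peptides and single-mutation variants displayed on the E. coli surface, counted by deep sequencing, each peptide's frequency after selection divided by its frequency in the unselected input library; frequency after pTyr selection over input frequency; kinase dosed for 20-30% of maximal phosphorylation in three min.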

Chain of MERTK (Q12866 whole entry, looked up, the tested form may be a part): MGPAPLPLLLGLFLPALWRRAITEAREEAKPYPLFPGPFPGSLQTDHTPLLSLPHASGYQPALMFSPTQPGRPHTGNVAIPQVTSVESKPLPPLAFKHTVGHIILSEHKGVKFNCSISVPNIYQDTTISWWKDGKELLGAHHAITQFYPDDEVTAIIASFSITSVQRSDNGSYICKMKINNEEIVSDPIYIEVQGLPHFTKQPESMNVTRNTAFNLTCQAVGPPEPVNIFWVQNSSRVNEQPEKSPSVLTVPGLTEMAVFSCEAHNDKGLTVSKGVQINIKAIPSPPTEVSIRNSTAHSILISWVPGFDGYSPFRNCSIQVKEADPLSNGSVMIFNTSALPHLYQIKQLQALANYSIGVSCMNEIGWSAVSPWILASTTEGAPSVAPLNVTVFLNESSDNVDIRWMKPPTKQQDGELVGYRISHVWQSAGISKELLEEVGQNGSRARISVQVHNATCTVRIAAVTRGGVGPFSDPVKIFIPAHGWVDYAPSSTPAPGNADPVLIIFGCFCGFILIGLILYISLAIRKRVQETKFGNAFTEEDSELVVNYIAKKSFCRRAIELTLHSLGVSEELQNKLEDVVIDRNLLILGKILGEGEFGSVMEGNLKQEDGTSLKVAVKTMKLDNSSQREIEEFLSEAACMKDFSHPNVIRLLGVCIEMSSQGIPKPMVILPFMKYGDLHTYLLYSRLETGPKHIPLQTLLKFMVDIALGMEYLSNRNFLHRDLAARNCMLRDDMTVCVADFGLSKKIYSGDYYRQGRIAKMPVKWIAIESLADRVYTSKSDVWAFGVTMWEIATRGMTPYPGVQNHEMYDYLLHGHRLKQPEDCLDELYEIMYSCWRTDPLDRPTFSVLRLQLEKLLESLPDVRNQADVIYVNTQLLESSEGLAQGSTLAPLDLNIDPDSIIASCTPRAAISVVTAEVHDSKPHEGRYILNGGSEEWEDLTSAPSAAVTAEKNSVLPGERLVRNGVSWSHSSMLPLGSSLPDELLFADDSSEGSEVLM

Row | Sequence | phosphorylation enrichment
1 | MANFVYKAGPS [MAML2_Y515_M514V_YF] | 0.371
2 | NSNAAYEQSHF [LRIF1_Y714] | 0.388
3 | ELQDDYEDTME [SLC4A1_Y8_M11T] | 0.526
4 | GDPTEYFSTAI [IGSF22_Y501_YF] | 0.439
5 | QMQNPYSRHSS [MUC13_Y501] | 0.346
6 | RKMSSYAFFVQ [HMGB1_Y16_G11R] | 1.19
7 | DEDEEYEFMNR [ERBB3_Y1197_YF] | 0.538
8 | RRIHSYRCHLW [VHL_Y112_G114C] | 0.786
9 | FSQQTYYRVSN [ABCD1_Y180] | 2.85
10 | ANYTEYVATRW [CDKL5_Y171] | 1.05
11 | FVFSFYHAFSG [ACTN4_Y265_S262F_YF] | 1.6
12 | FADIAYNFRDG [PAH_Y166_H170D_YF] | 0.47
13 | SVTWTYSPALN [TP53_Y126_C124W] | 0.289
14 | AALSAYAPQRP [PTPRN2_Y249_A251P] | 0.543
15 | TDLAYYLVCKG [ASL_Y376_R379C] | 0.79
16 | CTTLHYNYMCN [TP53_Y234_I232L] | 0.558
17 | LSSETYVKSYT [F5_Y2149_M2148T] | 0.513

Row | Sequence | phosphorylation enrichment
18 | TNDMRYPMKSE [TGDS_Y302] | 0.469
19 | ACQGKYTPSGQ [ALDOA_Y343] | 0.378
20 | TFQFKYPEGSS [TGM4_Y440_E437Q_YF] | 0.44
21 | TVLGEYALPKG [CYP24A1_Y407] | 0.585
22 | WAMPAYNRSKL [WWOX_Y293_L291P] | 0.257
23 | DHLASYLDKVR [KRT10_Y160_R156H] | 0.453
24 | VKPRRYRPGTV [H3-5_Y41_H39R] | 0.577
25 | SIKDKYVMALF [KCNH2_Y611_T613M_YF] | 0.447
26 | EKEKEYMLPLD [DNM2_Y563_K562E] | 0.442
27 | HAVYVYDICHV [TWNK_Y508] | 5.12
28 | KRLKDYLTVLQ [USP25_Y425] | 0.352
29 | RLLVVYTWTQR [HBB_Y36_P37T] | 0.694
30 | IGEGTYGVLFK [CDK2_Y15_V18L_YF] | 1.48
31 | EAIAKYDFKAT [GRB2_Y7] | 0.396
32 | TGHKGYVAFLE [CARD9_Y76] | 0.396
33 | NREGVYTVSAP [TGFBI_Y537_F540S] | 1.16

The sequences below were run against Grb2 SH2 (UniProt P62993) (assay: SH2 binding enrichment of the phosphorylated peptide, bacterial display (enrichment ratio); higher = better substrate or ligand; peptides without Tyr show the background).

Row | Sequence | SH2 binding enrichment
34 | RKMSSYAFFVQ [HMGB1_Y16_G11R] | 1.55
35 | DEDEEYEFMNR [ERBB3_Y1197_YF] | 1.04
36 | FSQQTYYRVSN [ABCD1_Y180] | 0.86
37 | ANYTEYVATRW [CDKL5_Y171] | 0.915
38 | FVFSFYHAFSG [ACTN4_Y265_S262F_YF] | 1.55
39 | TDLAYYLVCKG [ASL_Y376_R379C] | 0.959
40 | LSSETYVKSYT [F5_Y2149_M2148T] | 0.936
41 | ACQGKYTPSGQ [ALDOA_Y343] | 0.843
42 | TVLGEYALPKG [CYP24A1_Y407] | 0.707
43 | VKPRRYRPGTV [H3-5_Y41_H39R] | 0.835
44 | SIKDKYVMALF [KCNH2_Y611_T613M_YF] | 1.06
45 | EKEKEYMLPLD [DNM2_Y563_K562E] | 0.834
46 | RLLVVYTWTQR [HBB_Y36_P37T] | 1.68
47 | IGEGTYGVLFK [CDK2_Y15_V18L_YF] | 0.882
48 | EAIAKYDFKAT [GRB2_Y7] | 0.775
49 | TGHKGYVAFLE [CARD9_Y76] | 0.739

The next lines start with the values.

Row | SH2 binding enrichment | Sequence
50 | 1.01 | MANFVYKAGPS [MAML2_Y515_M514V_YF]
51 | 0.755 | NSNAAYEQSHF [LRIF1_Y714]
52 | 0.802 | ELQDDYEDTME [SLC4A1_Y8_M11T]
53 | 0.788 | GDPTEYFSTAI [IGSF22_Y501_YF]
54 | 0.974 | QMQNPYSRHSS [MUC13_Y501]
55 | 0.707 | RRIHSYRCHLW [VHL_Y112_G114C]
56 | 0.953 | FADIAYNFRDG [PAH_Y166_H170D_YF]
57 | 0.567 | SVTWTYSPALN [TP53_Y126_C124W]
58 | 0.713 | AALSAYAPQRP [PTPRN2_Y249_A251P]
59 | 1.21 | CTTLHYNYMCN [TP53_Y234_I232L]
60 | 0.861 | TNDMRYPMKSE [TGDS_Y302]
61 | 0.955 | TFQFKYPEGSS [TGM4_Y440_E437Q_YF]
62 | 0.909 | WAMPAYNRSKL [WWOX_Y293_L291P]
63 | 0.776 | DHLASYLDKVR [KRT10_Y160_R156H]
64 | 0.87 | HAVYVYDICHV [TWNK_Y508]
65 | 0.933 | KRLKDYLTVLQ [USP25_Y425]
66 | 0.834 | NREGVYTVSAP [TGFBI_Y537_F540S]

What follows are sequences tested against c-Src SH2 in the same assay as above.

Row | Sequence | SH2 binding enrichment
67 | RKMSSYAFFVQ [HMGB1_Y16_G11R] | 1.42
68 | DEDEEYEFMNR [ERBB3_Y1197_YF] | 0.664
69 | FSQQTYYRVSN [ABCD1_Y180] | 0.82
70 | ANYTEYVATRW [CDKL5_Y171] | 0.515
71 | FVFSFYHAFSG [ACTN4_Y265_S262F_YF] | 1.04
72 | TDLAYYLVCKG [ASL_Y376_R379C] | 0.461
73 | LSSETYVKSYT [F5_Y2149_M2148T] | 0.555
74 | ACQGKYTPSGQ [ALDOA_Y343] | 0.551
75 | TVLGEYALPKG [CYP24A1_Y407] | 0.572
76 | VKPRRYRPGTV [H3-5_Y41_H39R] | 0.576
77 | SIKDKYVMALF [KCNH2_Y611_T613M_YF] | 0.699
78 | EKEKEYMLPLD [DNM2_Y563_K562E] | 0.581
79 | RLLVVYTWTQR [HBB_Y36_P37T] | 1.01
80 | IGEGTYGVLFK [CDK2_Y15_V18L_YF] | 0.387
81 | EAIAKYDFKAT [GRB2_Y7] | 0.465
82 | TGHKGYVAFLE [CARD9_Y76] | 1.93

Second part, the sequence after the results:

Row | SH2 binding enrichment | Sequence
83 | 0.66 | MANFVYKAGPS [MAML2_Y515_M514V_YF]
84 | 0.769 | NSNAAYEQSHF [LRIF1_Y714]
85 | 0.582 | ELQDDYEDTME [SLC4A1_Y8_M11T]
86 | 0.522 | GDPTEYFSTAI [IGSF22_Y501_YF]
87 | 0.558 | QMQNPYSRHSS [MUC13_Y501]
88 | 0.651 | RRIHSYRCHLW [VHL_Y112_G114C]
89 | 0.424 | FADIAYNFRDG [PAH_Y166_H170D_YF]
90 | 0.319 | SVTWTYSPALN [TP53_Y126_C124W]
91 | 0.504 | AALSAYAPQRP [PTPRN2_Y249_A251P]
92 | 4.31 | CTTLHYNYMCN [TP53_Y234_I232L]
93 | 0.548 | TNDMRYPMKSE [TGDS_Y302]
94 | 0.568 | TFQFKYPEGSS [TGM4_Y440_E437Q_YF]
95 | 0.431 | WAMPAYNRSKL [WWOX_Y293_L291P]
96 | 0.44 | DHLASYLDKVR [KRT10_Y160_R156H]
97 | 0.867 | HAVYVYDICHV [TWNK_Y508]
98 | 0.569 | KRLKDYLTVLQ [USP25_Y425]
99 | 0.472 | NREGVYTVSAP [TGFBI_Y537_F540S]

What follows are sequences tested against SHP2-C SH2 in the same assay as above.

Row | Sequence | SH2 binding enrichment
100 | RKMSSYAFFVQ [HMGB1_Y16_G11R] | 1.24
101 | DEDEEYEFMNR [ERBB3_Y1197_YF] | 1.28
102 | FSQQTYYRVSN [ABCD1_Y180] | 0.672
103 | ANYTEYVATRW [CDKL5_Y171] | 0.998
104 | FVFSFYHAFSG [ACTN4_Y265_S262F_YF] | 1.31
105 | TDLAYYLVCKG [ASL_Y376_R379C] | 0.829
106 | LSSETYVKSYT [F5_Y2149_M2148T] | 0.818
107 | ACQGKYTPSGQ [ALDOA_Y343] | 0.75
108 | TVLGEYALPKG [CYP24A1_Y407] | 0.429
109 | VKPRRYRPGTV [H3-5_Y41_H39R] | 0.514
110 | SIKDKYVMALF [KCNH2_Y611_T613M_YF] | 0.845
111 | EKEKEYMLPLD [DNM2_Y563_K562E] | 0.729
112 | RLLVVYTWTQR [HBB_Y36_P37T] | 1.55
113 | IGEGTYGVLFK [CDK2_Y15_V18L_YF] | 0.8
114 | EAIAKYDFKAT [GRB2_Y7] | 0.679
115 | TGHKGYVAFLE [CARD9_Y76] | 0.81

More lines, now with the values ahead:

Row | SH2 binding enrichment | Sequence
116 | 0.825 | MANFVYKAGPS [MAML2_Y515_M514V_YF]
117 | 0.663 | NSNAAYEQSHF [LRIF1_Y714]
118 | 0.516 | ELQDDYEDTME [SLC4A1_Y8_M11T]
119 | 0.583 | GDPTEYFSTAI [IGSF22_Y501_YF]
120 | 0.758 | QMQNPYSRHSS [MUC13_Y501]
121 | 0.61 | RRIHSYRCHLW [VHL_Y112_G114C]
122 | 0.58 | FADIAYNFRDG [PAH_Y166_H170D_YF]
123 | 0.492 | SVTWTYSPALN [TP53_Y126_C124W]
124 | 0.549 | AALSAYAPQRP [PTPRN2_Y249_A251P]
125 | 2.06 | CTTLHYNYMCN [TP53_Y234_I232L]
126 | 0.697 | TNDMRYPMKSE [TGDS_Y302]
127 | 0.896 | TFQFKYPEGSS [TGM4_Y440_E437Q_YF]
128 | 0.668 | WAMPAYNRSKL [WWOX_Y293_L291P]
129 | 0.714 | DHLASYLDKVR [KRT10_Y160_R156H]
130 | 0.898 | HAVYVYDICHV [TWNK_Y508]
131 | 0.573 | KRLKDYLTVLQ [USP25_Y425]
132 | 0.769 | NREGVYTVSAP [TGFBI_Y537_F540S]

Source: the supplement of paper PMC10065799, “High-throughput profiling of sequence recognition by tyrosine kinases and SH2 domains using bacterial peptide display” (eLife, 2023)
